B1: soluble recombinant FcγRIIIB (sFcγRIIIB) (receptor, UniProt O75015 17-200, looked up)
chain: GMRTEDLPKAVVFLEPQWYSVLEKDSVTLKCQGAYSPEDNSTQWFHNENLISSQASSYFIDAATVNDSGEYRCQTNLSTLSDPVQLEVHIGWLLLQAPRWVFKEEDPIHLRCHSWKNTALHKVTYLQNGKDRKYFHHNSDFHIPKATLKDSGSYFCRGLVGSKNVSSETVNITITQGLAVSTIS
notes: extracellular domain; not shown: C-terminal poly-histidine tail of 6-10 histidines
B2: soluble recombinant FcγRIIA (H131 variant) (receptor)
chain: QAAPPKAVLKLEPPWINVLQEDSVTLTCQGARSPESDSIQWFHNGNLIPTHTQPSYRFKANNNDSGEYTCQTGQTSLSDPVHLTVLSEWLVLQTPHLEFQEGETIMLRCHSWKDKPLVKVTFFQNGKSQKFSHLDPTFSIPQANHSHSGDYHCTGNIGYTLFSSKPVTITVQVPSMGSSSPMG
notes: also called FcγR2A; not shown: C-terminal poly-histidine tail of 6-10 histidines
B3: C-reactive protein (CRP) (ligand, human, UniProt P02741 19-224, looked up)
chain: QTDMSRKAFVFPKESDTSYVSLKAPLTKPLKAFTVCLHFYTELSSTRGYSIFSYATKRQDNEILIFWSKDIGYSFTVGGSEILFEVPEVTVAPVHICTSWESASGIVEFWVDGKPRVRKSLKKGYTVGAEASIILGQEQDSFGGNFEGSQSLVGDIGNVNMWDFVLSPDEINTIYLGGPFSPNVLNWRALKYEVQGEVFTKPQLWP
notes: In the SPR assay CRP was captured on PC-KLH immobilised on a CM5 chip; also called hCRP; PTX1
B4: soluble recombinant FcγRIIB (receptor, UniProt P31994 43-217, looked up)
chain: TPAAPPKAVLKLEPQWINVLQEDSVTLTCRGTHSPESDSIQWFHNGNLIPTHTQPSYRFKANNNDSGEYTCQTGQTSLSDPVHLTVLSEWLVLQTPHLEFQEGETIVLRCHSWKDKPLVKVTFFQNGKSKKFSRSDPNFSIPQANHSHSGDYHCTGNIGYTLYSSKPVTITVQAP
notes: as for B1

Test [1] addresses B3. Put plainly: SPR steady-state plot of Req against FcγRIIIB concentration (early association phase data); CRP captured via PC-KLH on CM5 chip; dotted vertical line marks the KD estimate, beyond the highest concentration tested (3e-6 M). As for the experimental part: (§1) Similar methods were used to evaluate binding interactions between CRP and sFcγRs, and details were the same except where stated here. Binding of CRP to Biacore CM5 chips was achieved through capture via PC-KLH (phosphocholine-keyhole limpet hemocyanin conjugate). Briefly, PC-KLH was immobilized onto a CM5 chip through amine coupling onto the chip surface activated with 1-ethyl-3-(3-dimethylaminopropyl)carbodiimide and N-hydroxysuccinimide. A negative control flow cell was prepared using the same amine coupling to immobilize human serum albumin to the same level as the PC-KLH. Binding of CRP to the PC moiety of PC-KLH immobilized on the CM5 chip was achieved by contacting the surface of the CM5 chip with the CRP in 10 mM Hepes, 150 mM NaCl, 0.5 mM CaCl₂, pH 7.4, to achieve the desired amount of bound CRP. We established that binding was specific for the PC moiety in PC-KLH, since no binding to KLH immobilized to the same level was evident when this was attempted on a different flow cell using the same conditions and the same 10 mM Hepes, 150 mM NaCl, 0.5 mM CaCl₂, pH 7.4, as running buffer. Binding of CRP to PC-KLH was stabilized by a very short immobilization using amine coupling. […]

Test [2] has as its target T1, serum amyloid P (SAP) (human, UniProt P02743 20-223).
T1 construct: Pentamer of five non-covalently associated protomers; also called hSAP; human serum amyloid protein P
Put plainly: SPR (Biacore X100), SAP on CM5 chip, soluble receptor flowed, single cycle kinetics, KD = Kd/Ka. An excerpt:
(§2) Surface plasmon resonance technology detects and quantifies binding and dissociation events between two proteins through a change in mass at the surface of a chip that is detected as a change in surface plasmon resonance. For these studies we used a Biacore X100 instrument.
(§3) SAP was bound to the surface of the test flow cell of a chip and a soluble recombinant form of Fcγ receptor (sFcγR) was flowed across the surface of the chip, representing the contact or binding phase. Buffer was then flowed across the chip surface, representing the dissociation phase. Change in mass at the cell surface with respect to time, detected as a change in surface plasmon resonance units (RUs) with time, was represented by a graph called a sensorgram. Binding of SAP to the CM5 dextran surface of a Biacore CM5 chip was performed in the presence of 10 mM Hepes, 150 mM NaCl, 0.5 mM CaCl₂, pH 7.4 as running buffer. Binding of SAP was stabilized by a very short immobilization using amine coupling (Biacore reagents) which covalently linked a limited representation of amine-group-containing amino acids on SAP to groups on the chip surface activated with 1-ethyl-3-(3-dimethylaminopropyl)carbodiimide and N-hydroxysuccinimide. A negative control flow cell was prepared using the same amine coupling procedure to immobilize human serum albumin to the same level as SAP. […]
For orientation: SPR reads the build-up and loss of mass on a sensor chip optically.

In test [3] the target is T2, soluble recombinant FcγRI (sFcγRI) (UniProt P12314 16-292).
T2 construct: extracellular domain; also called FcγR1; not shown: C-terminal poly-histidine tail of 6-10 histidines
T2 sequence (P12314 16-292): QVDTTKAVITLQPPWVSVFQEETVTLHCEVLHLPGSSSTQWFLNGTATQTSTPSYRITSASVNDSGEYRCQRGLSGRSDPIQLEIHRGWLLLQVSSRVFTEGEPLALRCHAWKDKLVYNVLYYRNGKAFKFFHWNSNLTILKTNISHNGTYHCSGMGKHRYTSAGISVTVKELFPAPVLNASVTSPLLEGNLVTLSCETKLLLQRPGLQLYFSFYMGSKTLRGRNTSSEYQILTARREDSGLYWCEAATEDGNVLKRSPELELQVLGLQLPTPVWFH
Put plainly: SPR steady-state plot of Req against FcγRI concentration (early association phase data); CRP captured via PC-KLH on CM5 chip; vertical line marks the KD estimate. As for the experimental part: as §1

The target in test [4] is T1, serum amyloid P (SAP). Put plainly: SPR (Biacore X100), SAP on CM5 chip, soluble receptor flowed.
From the text: as §2, §3

By Kd is commonly meant the concentration at which binding is half-saturated.

T1 sequence (P02743 20-223): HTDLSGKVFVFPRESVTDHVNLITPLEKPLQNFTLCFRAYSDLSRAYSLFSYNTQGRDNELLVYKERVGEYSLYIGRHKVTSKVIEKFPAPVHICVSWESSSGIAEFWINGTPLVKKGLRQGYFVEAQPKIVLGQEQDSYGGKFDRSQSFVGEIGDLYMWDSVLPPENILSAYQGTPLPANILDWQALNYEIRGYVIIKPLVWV

With B1, the Kd in test [1] was about 15.6 µM.
Take B2: the Kd in test [2] came to 0.17 nM.
B3: the Kd in test [3] was about 1450 nM.
Regarding B4, the binding result in test [4] is recorded as “no binding”.

The values above are taken from patent US20090202520A1 (PROMEDIOR, published 2009).
